According to patent US10138280B2, “Polypeptides targeting glycosylated MUC2 proteins, methods of synthesis, their nucleic acids and uses thereof” (INSTITUT PASTEUR, priority 2011, dated 2018):

Legend:
[1] = tested on: guinea pig colonic mucus; experiment: Mucus staining on fixed tissues, guinea pig colon; settings: fixed tissue, 1 μg/mL
Description: FIGS. 11A-11C. Mucus staining using Cy5-MUB70 on fixed tissues. (FIG. 11A) Guinea pig colon, (FIG. 11B) rabbit ileum and (FIG. 11C) mouse colon were fixed in PFA 4%. Immunofluorescent staining was performed using Cy5-MUB70 (1 μg/mL) (blue). Actin is stained in red (Phall.-RRX), Muc2 is stained in green (α-Muc2). Observations were performed using a confocal microscope. Bar is 50 μm.
Ex vivo human colon samples were obtained from Dr. E. Labruyère (Institut Pasteur) and tissue processing was performed as described previously and stored in serum free RMPI media (surgical procedure is described herein). Human mucinous carcinoma formamide fixed samples were obtained from Dr. T. Lazure (Hôpitaux Universitaires Paris-Sud, Kremlin-Bicêtre) and Pr. I. Sobhani (Hôpital Henri Mondor, Créteil). Rabbit colon and ileum samples were collected on naïve New Zealand white rabbits weighting 2.5-3 kg and fixed in PFA 3%. Same procedure was applied on intestine samples collected on guinea pigs (Charles River) and C57/B6 mice (Janvier).
Following PFA 4% or Carnoy fixation, as indicated, samples were washed in PBS, incubated at 4° C. in PBS containing 12% sucrose for 90 min, then in PBS with 18% sucrose overnight, and frozen in OCT (Sakura) on dry ice. 7 μm sections were obtained using a cryostat CM-3050 (Leica). […]

[2] = target: T1, human colonic mucus and goblet cells (Homo sapiens, UniProt Q02817); experiment: Fluorescent staining of healthy human colon, formol fixed, paraffin embedded samples
T1 construct: Segments of human colon (ascending, descending and sigmoid colon) were obtained from fully informed patients undergoing surgery; from tissue; host or cells: healthy human colon segments (live explants, mucus collected from them, Carnoy- or formol-fixed sections)
Description: FIG. 22. Schematic description of the Cy5-MUB40-1, Cy5-MUB40-2, Cy5-MUB40-3, Cy5-MUB40-4 peptides (SEQ ID NOS 62 to 65). Fluorescent staining of human colonic mucus was performed by the addition of 1 μg/mL of the corresponding Cy5-conjugated peptides with Phalloidin-RRX (1:100) on formol fixed, paraffin embedded samples. Image acquisition was performed using a fluorescent confocal microscope (see Methods).
FIG. 23 Comparative staining analysis of human colonic goblet cells using Cy5-MUB70 and Cy5-MUB40-1. Fluorescent staining of human colonic mucus was performed by the addition of 1 μg/mL of the corresponding Cy5-conjugated peptides with Phalloidin-RRX (1:100) on formol fixed, paraffin embedded samples. Image acquisition was performed using a fluorescent confocal microscope (see Methods).
(§1) FIGS. 24A-24B. Comparative human colonic mucus staining using MUB70-Cy5 on healthy tissues and mucinous carcinomas (Coic et al, JBC, 2012 (41)). Fluorescent staining of human colonic mucus was performed by the addition of 1 μg/mL of the corresponding Cy5-conjugated peptides with Phalloidin-RRX (1:100) on formol fixed, paraffin embedded samples. Image acquisition was performed using a fluorescent confocal microscope (see Methods).
As colonic mucinous carcinomas are characterized by abnormal overproduction of Muc2 in the colon mucosa (40), the inventors have hypothesized that Cy5-MUB70 could be used as a novel fluorescent marker for the diagnosis of this pathology. […] As shown previously on a healthy colon (FIG. 3B), the luminal mucus secreted fraction is detected by Cy5-MUB70 (FIG. 24A, top panel). […] This observation might be the consequence of a higher level of mucus compaction, resulting in a lower accessibility for MUB70 to bind Muc2. […] Cy5-MUB70 has been validated as a potent innovative diagnostic tool for colonic mucinous carcinoma detection and might be optimized with alternative markers (e.g. biotin) for practical clinical applications.

[3] = target: T2, mucus of human colonic mucinous carcinomas (Muc2) (Homo sapiens, UniProt Q02817); experiment: Fluorescent staining of human colonic mucinous carcinoma samples
T2 construct: five different samples collected from patients diagnosed with colonic mucinous carcinomas; from tissue; host or cells: human colonic mucinous carcinoma samples, fixed, paraffin embedded
Description: as §1
Ex vivo human colon samples were obtained from Dr. E. Labruyère (Institut Pasteur) and tissue processing was performed as described previously and stored in serum free RMPI media (surgical procedure is described herein). Human mucinous carcinoma formamide fixed samples were obtained from Dr. T. Lazure (Hôpitaux Universitaires Paris-Sud, Kremlin-Bicêtre) and Pr. I. Sobhani (Hôpital Henri Mondor, Créteil). Rabbit colon and ileum samples were collected on naïve New Zealand white rabbits weighting 2.5-3 kg and fixed in PFA 3%. […]
As colonic mucinous carcinomas are characterized by abnormal overproduction of Muc2 in the colon mucosa (40), the inventors have hypothesized that Cy5-MUB70 could be used as a novel fluorescent marker for the diagnosis of this pathology. […] As shown previously on a healthy colon (FIG. 3B), the luminal mucus secreted fraction is detected by Cy5-MUB70 (FIG. 24A, top panel). […]

[4] = tested on: rabbit colonic mucus; experiment: Mucus staining on fixed tissues, rabbit colon
Description: FIGS. 8A-8D. (FIG. 8A) Cell toxicity of Cy5-MUB70 tested on HT-29-MTX and Hela epithelial cells. Cell survival was assessed using Sytoxgreen dye on cultures exposed to 1 μg/mL Cy5-MUB70 from 0 to 10 h, as indicated. NS indicates P>0.05 (Student's T-test). (FIG. 8B) Rabbit colonic and ileal mucus staining on fixed tissues (PFA 4%), using Cy5-MUB70 (1 μg/mL) (blue). Actin is stained in red (Phall.-RRX). Bar is 50 μm. (FIG. 8C) Human ex vivo colon sample was incubated for 2 h with 1 μg/mL Cy5-MUB70 in a serum-free media. Resulting fluorescent staining was assessed using a two-photons microscope (see Methods). Z-projection, performed using ImageJ software, allows 3D localization of Cy5-MUB70 fluorescence signal. Bar is 100 μm. Colon scheme: firmly (f) and loosely (I) attached colonic mucus layers are represented at the surface of the epithelium (e). (FIG. 8D) Kinetics of colonic mucus with Cy5-MUB70. […] Human tissue autofluorescence is detected in the same red channel as Cy5.
FIGS. 9A-9B. (FIG. 9A) Co-localization of Muc2 (green) and Cy5-MUB (blue) performed by immunofluorescent detection on human mucus extract collected on ex vivo tissues using an epifluorescent microscope. Bar is 50 μm. (FIG. 9B) Co-localization of Muc2 (green) and Cy5-MUB (blue) observed on fixed (PFA 4%) rabbit colon samples. Actin is stained in red (Phall.RRX). Observations are performed using a confocal microscope. […]

B1: Cy5-MUB70: Cy5-labelled MUB70 polypeptide, labelled via Cy5 maleimide on N-terminal cysteine (conjugate)
peptide: CVHVQYIDGETDQMLRQDDLDGYTDETIPYSTAEGIKKFEGDGYELFKDNFPAGEKFDNDDTNDQFYTVIF
[1]
  colonic mucus staining: confirmed
[2]; colonic mucosa of healthy colon tissues from the same patients
  mucosal staining in healthy colon tissues: no mucosal staining was observed
[2]; healthy colon, fixed
  luminal mucus secreted fraction staining in healthy colon: detected
[2]; human colonic goblet cells, fixed samples, 1 μg/mL
  goblet cells binding: not recognized
[3]; five samples from patients, 1 μg/mL
  staining of colonic mucinous carcinoma samples: specific staining was observed within the mucus accumulation areas
[3]; mucus accumulation within the colonic mucosa, associated with tumor cells
  colocalization with Muc2 in colonic mucinous carcinomas: colocalizes with the presence of Muc2
[4]; fixed rabbit colon samples
  colocalization with Muc2: colocalization detection of Muc2 and Cy5-MUB70
[4]; rabbit colon, fixed tissue, 1 μg/mL
  colonic mucus staining: confirmed
